Measurements reported in patent US20100272723A1 (Xencor, published 2010).
Blank lines part the entries; values can stand above or below the binder they belong to.

What was measured:
[1] = molecular target: T1, human CD19 (human, UniProt P15391 20-556); assay: flow cytometry, binding to CD19 on RS4;11 cells, MFI against Log[Ab], nM
T1 construct: also called B-cell surface antigen B4; B-cell antigen CD19
T1 sequence: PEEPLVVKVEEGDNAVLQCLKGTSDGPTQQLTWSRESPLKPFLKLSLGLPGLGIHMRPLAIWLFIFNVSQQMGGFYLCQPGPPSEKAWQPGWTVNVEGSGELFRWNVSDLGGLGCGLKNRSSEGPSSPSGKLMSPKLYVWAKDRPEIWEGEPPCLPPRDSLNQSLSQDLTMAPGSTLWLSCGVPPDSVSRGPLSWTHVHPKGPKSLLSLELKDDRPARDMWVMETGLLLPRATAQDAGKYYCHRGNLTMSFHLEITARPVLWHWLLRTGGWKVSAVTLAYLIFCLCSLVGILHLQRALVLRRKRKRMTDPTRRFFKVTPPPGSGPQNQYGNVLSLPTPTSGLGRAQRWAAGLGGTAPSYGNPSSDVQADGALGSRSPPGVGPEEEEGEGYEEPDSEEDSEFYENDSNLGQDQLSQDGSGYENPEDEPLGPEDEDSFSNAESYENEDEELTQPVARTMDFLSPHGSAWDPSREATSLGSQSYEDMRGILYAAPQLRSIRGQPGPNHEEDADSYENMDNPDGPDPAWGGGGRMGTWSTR

[2] = molecular target: T2, human F158 FcγRIIIa (FcγR-His) (human, UniProt P08637 17-208, limits assumed); assay: Biacore SPR; IgG captured on protein A/G, FcγR-His injected; 1:1 model
T2 construct: Soluble His-tagged receptor injected as analyte in Biacore; not shown: His tag ('FcγR-His')
Experimental: (§1) Briefly, protein A/G was coupled to a flow cell of a CM5 chip. IgG was first diluted to 25 nM and immobilized to protein A/G channel to ˜1000 RUs. FcγR-His was serially diluted and injected at […] for 2 min followed by dissociation for 3 min. To determine KD the resulting sensorgrams are “group-fitted” using the 1:1 interaction model available in BlAevaluation software.

[3] = molecular target: T3, human V158 FcγRIIIa (FcγR-His) (human, UniProt P08637 17-208, limits assumed); assay: as above
T3 construct: Soluble His-tagged receptor injected as analyte in Biacore; not shown: His tag ('FcγR-His')
Experimental: as §1

[4] = molecular target: T1, human CD19; assay: DELFIA time-resolved fluorometry competition on Raji cells; competitor tracer is Eu-labeled anti-CD19 (H0L0)
Experimental: Affinities of enhanced effector function anti-CD19 variants were determined by using the DELFIA® system (PerkinElmer Life Sciences) which is based on Time-Resolved Fluorometry (TRF). […] The assay is essentially applied as a competition assay for screening anti-CD19 antibodies of different affinities.

[5] = molecular target: T3, human V158 FcγRIIIa (FcγR-His); assay: Biacore SPR; IgG captured on protein A/G, FcγR-His injected; reference is 4G7 IgG1 (WT)
Experimental: as §1

[6] = molecular target: T4, FcγRIIa - R131 (human, UniProt P12318); assay: Biacore SPR: IgG captured on protein A/G (CM5 chip), FcγR-His injected; KD from 1:1 group fit, plotted as -log(KD)
T4 construct: soluble His-tagged receptor; also called R131 FcγRIIa (FcγR-His)
T4 sequence (receptor chain, looked up): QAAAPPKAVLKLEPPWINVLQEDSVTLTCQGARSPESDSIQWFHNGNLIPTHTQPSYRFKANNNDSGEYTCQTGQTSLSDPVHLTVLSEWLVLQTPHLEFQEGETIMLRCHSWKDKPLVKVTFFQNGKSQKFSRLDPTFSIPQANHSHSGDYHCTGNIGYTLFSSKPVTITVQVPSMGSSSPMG
Experimental: as §1

[7] = molecular target: T5, FcγRIIa - H131 (human, UniProt P12318); assay: as above
T5 construct: soluble His-tagged receptor; also called H131 FcγRIIa (FcγR-His)
T5 sequence (receptor chain, looked up): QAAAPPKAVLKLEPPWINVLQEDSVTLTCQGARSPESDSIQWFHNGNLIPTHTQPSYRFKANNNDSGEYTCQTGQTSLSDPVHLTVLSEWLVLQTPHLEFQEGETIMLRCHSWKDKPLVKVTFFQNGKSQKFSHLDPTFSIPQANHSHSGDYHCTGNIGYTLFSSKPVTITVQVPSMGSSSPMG
Experimental: as §1

[8] = molecular target: T6, cynomolgus CD19 (cynomolgus (Macaca fascicularis), UniProt A0A2K5W8L9 20-557); assay: flow cytometry on monkey blood lymphocytes (method for the murine antibody not detailed)
T6 construct: whole, on cells; also called CD19 from cynomolgus monkey (Macaca fascicularis)
T6 sequence: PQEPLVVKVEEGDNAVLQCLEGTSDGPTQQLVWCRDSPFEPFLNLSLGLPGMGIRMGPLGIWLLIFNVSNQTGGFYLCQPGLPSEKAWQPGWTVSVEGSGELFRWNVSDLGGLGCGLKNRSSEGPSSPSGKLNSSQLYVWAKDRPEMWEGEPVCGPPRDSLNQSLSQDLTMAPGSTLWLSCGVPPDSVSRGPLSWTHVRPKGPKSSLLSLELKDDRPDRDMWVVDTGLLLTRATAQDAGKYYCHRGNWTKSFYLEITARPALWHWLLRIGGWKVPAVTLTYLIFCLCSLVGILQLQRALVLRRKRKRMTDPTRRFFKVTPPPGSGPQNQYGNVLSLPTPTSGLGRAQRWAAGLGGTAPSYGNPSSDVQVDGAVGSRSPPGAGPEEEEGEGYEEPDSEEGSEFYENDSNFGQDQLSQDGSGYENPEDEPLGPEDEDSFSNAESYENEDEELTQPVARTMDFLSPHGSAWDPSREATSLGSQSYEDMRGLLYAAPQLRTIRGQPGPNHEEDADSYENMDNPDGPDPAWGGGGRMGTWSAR

[9] = molecular target: T7, rhesus CD19 (rhesus (Macaca mulatta), UniProt F7F486 20-557); assay: as above
T7 construct: whole, on cells; also called CD19 from rhesus monkey (Macaca mulatta)
T7 sequence: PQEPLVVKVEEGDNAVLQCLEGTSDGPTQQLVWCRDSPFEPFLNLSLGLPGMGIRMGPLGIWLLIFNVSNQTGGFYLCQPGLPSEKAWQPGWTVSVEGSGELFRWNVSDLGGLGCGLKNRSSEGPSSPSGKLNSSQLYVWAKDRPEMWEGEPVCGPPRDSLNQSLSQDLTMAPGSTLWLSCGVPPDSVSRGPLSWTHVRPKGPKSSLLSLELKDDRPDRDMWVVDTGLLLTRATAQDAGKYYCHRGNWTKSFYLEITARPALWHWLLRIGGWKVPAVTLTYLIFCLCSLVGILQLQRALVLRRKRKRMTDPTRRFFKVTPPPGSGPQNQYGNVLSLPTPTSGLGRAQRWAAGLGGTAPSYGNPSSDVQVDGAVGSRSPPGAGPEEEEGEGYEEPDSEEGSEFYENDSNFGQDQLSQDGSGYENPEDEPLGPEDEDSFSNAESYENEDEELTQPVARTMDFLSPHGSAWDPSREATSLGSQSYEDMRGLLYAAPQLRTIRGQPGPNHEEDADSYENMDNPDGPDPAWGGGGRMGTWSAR

T3 sequence (P08637 17-208 F176V limits assumed): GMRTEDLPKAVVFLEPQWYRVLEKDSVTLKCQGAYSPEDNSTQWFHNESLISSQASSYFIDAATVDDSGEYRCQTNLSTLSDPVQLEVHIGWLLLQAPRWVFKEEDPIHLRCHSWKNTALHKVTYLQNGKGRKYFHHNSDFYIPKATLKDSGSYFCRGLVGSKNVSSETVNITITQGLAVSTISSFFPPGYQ
T2 sequence (P08637 17-208 limits assumed): as the sequence (P08637 17-208 F176V limits assumed) above, with V160F counted along it

EC50 (read off the curve) [1]: ~6 nM
B1: 4G7 H1L1 Hybrid S239D/I332E (antibody, human IgG1, kappa, V domains shown)
VH: EVQLVESGGGLVKPGGSLKLSCAASGYTFTSYVMHWVRQAPGKGLEWIGYINPYNDGTKYNEKFQGRVTISSDKSISTAYMELSSLRSEDTAMYYCARGTYYYGSRVFDYWGQGTLVTVSS
VL: DIVMTQSPATLSLSPGERATLSCRSSKSLLNSNGNTYLYWFQQKPGQSPQLLIYRMSNLASGVPDRFSGSGSGTEFTLTISSLEPEDFAVYYCMQHLEYPFTFGAGTKLEIKR
notes: also called H1L1 mAb

Kd [2]: ~16.7 nM
Kd [3]: ~4.7 nM
EC50 [4]: 1.2 nM
affinity enhancement relative to WT [5]: ~50 fold
binding result [6]: binds
binding result [7]: binds
B2: 4G7 Hybrid S239D/I332E (murine 4G7 H0/L0 variable regions, hybrid IgG1/IgG2 constant region with S239D/I332E) (antibody)
heavy: EVQLQQSGPELIKPGASVKMSCKASGYTFTSYVMHWVKQKPGQGLEWIGYINPYNDGTKYNEKFKGKATLTSDKSSSTAYMELSSLTSEDSAVYYCARGTYYYGSRVFDYWGQGTTLTVSSASTKGPSVFPLAPSSKSTSGGTAALGCLVKDYFPEPVTVSWNSGALTSGVHTFPAVLQSSGLYSLSSVVTVPSSSLGTQTYICNVNHKPSNTKVDKKVEPKSCDKTHTCPPCPAPELLGGPDVFLFPPKPKDTLMISRTPEVTCVVVDVSHEDPEVQFNWYVDGVEVHNAKTKPREEQFNSTFRVVSVLTVVHQDWLNGKEYKCKVSNKALPAPEEKTISKTKGQPREPQVYTLPPSREEMTKNQVSLTCLVKGFYPSDIAVEWESNGQPENNYKTTPPMLDSDGSFFLYSKLTVDKSRWQQGNVFSCSVMHEALHNHYTQKSLSLSPGK
light: DIVMTQAAPSIPVTPGESVSISCRSSKSLLNSNGNTYLYWFLQRPGQSPQLLIYRMSNLASGVPDRFSGSGSGTAFTLRISRVEAEDVGVYYCMQHLEYPFTFGAGTKLELKRTVAAPSVFIFPPSDEQLKSGTASVVCLLNNFYPREAKVQWKVDNALQSGNSQESVTEQDSKDSTYSLSSTLTLSKADYEKHKVYACEVTHQGLSSPVTKSFNRGEC
notes: also called effector function enhanced anti-CD19; enhanced effector function anti-CD19; copies: 2 + 2

binding result [8]: no binding
binding result [9]: no binding
B3: parental murine antibody of the anti-CD19 (4G7) (antibody, V domains shown)
VH: EVQLQQSGPELIKPGASVKMSCKASGYTFTSYVMHWVKQKPGQGLEWIGYINPYNDGTKYNEKFKGKATLTSDKSSSTAYMELSSLTSEDSAVYYCARGTYYYGSRVFDYWGQGTTLTVSS
VL: DIVMTQAAPSIPVTPGESVSISCRSSKSLLNSNGNTYLYWFLQRPGQSPQLLIYRMSNLASGVPDRFSGSGSGTAFTLRISRVEAEDVGVYYCMQHLEYPFTFGAGTKLELK
notes: also called its parental murine antibody
